The target in experiment [1] is T1, human calcitonin receptor (human, UniProt P30988 25-474).
T1 construct: whole, on cells; also called hCTR; hCT
T1 sequence (looked up): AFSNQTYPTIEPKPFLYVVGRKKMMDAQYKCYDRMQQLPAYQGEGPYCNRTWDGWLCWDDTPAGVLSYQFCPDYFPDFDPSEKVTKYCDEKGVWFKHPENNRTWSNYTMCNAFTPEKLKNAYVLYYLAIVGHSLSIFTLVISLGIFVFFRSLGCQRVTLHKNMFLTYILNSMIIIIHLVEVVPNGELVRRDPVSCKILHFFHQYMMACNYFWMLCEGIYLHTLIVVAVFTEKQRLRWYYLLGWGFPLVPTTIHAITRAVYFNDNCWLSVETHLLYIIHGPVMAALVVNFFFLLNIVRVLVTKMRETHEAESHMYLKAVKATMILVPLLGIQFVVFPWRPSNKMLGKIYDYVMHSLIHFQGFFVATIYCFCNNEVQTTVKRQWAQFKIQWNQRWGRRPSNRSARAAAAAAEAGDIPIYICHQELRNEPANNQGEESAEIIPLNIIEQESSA
Nature of the experiment: ratio of IC50 at human calcitonin receptor to IC50 at human amylin receptor (SPA competition assays). In outline: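 Competition binding by SPA uses membrane preparations (35 ng/μL final) in pH 7.4 Hepes buffer with 1 mM CaCl2 and 5 mM MgCl₂. Incubation lasts 120 min at 25° C, and IC₅₀ comes from one-site fitting.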

Experiment [2] addresses T1, human calcitonin receptor. Nature of the experiment: SPA radioligand competition (125I-calcitonin), membranes of BHK cells with human calcitonin receptor. In outline:
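BHK hCTR membranes 35 ng/μL + SPA beads 0.05 mg/well; buffer 50 mM Hepes pH 7.4, 1 mM CaCl2, 5 mM MgCl₂, 0.1% OA, 0.02% Tween20. 120 min, 25° C., shaking. Scintillation count; IC50 by one-site binding competition.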
On the technique in general: Loss of bound radioactivity is the signal in a displacement assay; it reports binding, not function.

Numbered stars: 1 amine (or outer) side, 2 acyl side, 3 side chain; on linkers, the order of the positions; unused ones are H or OH. Bridge positions count the residues as written; N and C are the ends. Side chains are listed from the residue outwards. Ends that are not written are not given here. * marks the point of attachment. C20 diacid = O=C(O)CCCCCCCCCCCCCCCCCCC(=O)*; γGlu = O=C(O)[C@H](CCC(=O)[*:2])N[*:1]; AEEA = NCCOCCOCC(=O)O

As a reminder, the IC50 is the point on the concentration scale where inhibition reaches its midpoint.

B1: N^ε1-[2-[2-[2-[[2-[2-[2-[[(4S)-4-carboxy-4-(19-carboxynonadecanoylamino)butanoyl]amino]ethoxy]ethoxy]acetyl]amino]ethoxy]ethoxy]acetyl]-[Arg17,Pro21,Pro27,His34 … (peptide)
peptide: K([AEEA-AEEA-γGlu-C20 diacid])CNTATCATQRLANFLRHSSPNFGAIPSSTNVGHNTY-NH2
modifications: disulfide 2-7; N-terminus assumed
SMILES: CC[C@H](C)[C@H](NC(=O)[C@H](C)NC(=O)CNC(=O)[C@H](Cc1ccccc1)NC(=O)[C@H](CC(N)=O)NC(=O)[C@@H]1CCCN1C(=O)[C@H](CO)NC(=O)[C@H](CO)NC(=O)[C@H](Cc1c[nH]cn1)NC(=O)[C@H](CCCNC(=N)N)NC(=O)[C@H](CC(C)C)NC(=O)[C@H](Cc1ccccc1)NC(=O)[C@H](CC(N)=O)NC(=O)[C@H](C)NC(=O)[C@H](CC(C)C)NC(=O)[C@H](CCCNC(=N)N)NC(=O)[C@H](CCC(N)=O)NC(=O)[C@@H](NC(=O)[C@H](C)NC(=O)[C@@H]1CSSC[C@H](NC(=O)[C@@H](N)CCCCNC(=O)COCCOCCNC(=O)COCCOCCNC(=O)CC[C@H](NC(=O)CCCCCCCCCCCCCCCCCCC(=O)O)C(=O)O)C(=O)N[C@@H](CC(N)=O)C(=O)N[C@@H]([C@@H](C)O)C(=O)N[C@@H](C)C(=O)N[C@@H]([C@@H](C)O)C(=O)N1)[C@@H](C)O)C(=O)N1CCC[C@H]1C(=O)N[C@@H](CO)C(=O)N[C@@H](CO)C(=O)N[C@H](C(=O)N[C@@H](CC(N)=O)C(=O)N[C@H](C(=O)NCC(=O)N[C@@H](Cc1c[nH]cn1)C(=O)N[C@@H](CC(N)=O)C(=O)N[C@H](C(=O)N[C@@H](Cc1ccc(O)cc1)C(N)=O)[C@@H](C)O)C(C)C)[C@@H](C)O
notes: also called compound 97
Take B1: the “Ratio hCT/hAmylin binding” value in experiment [1] was 104. Also, the IC50 in experiment [2] was found to be 58.9 nM.

B2: N^ε1-[(4S)-4-carboxy-4-[[(4S)-4-carboxy-4-(19-carboxynonadecanoylamino)butanoyl]amino]butanoyl]-[Arg17,Pro21,Pro27,His34]-h-amylin (peptide)
peptide: K([γGlu-γGlu-C20 diacid])CNTATCATQRLANFLRHSSPNFGAIPSSTNVGHNTY-NH2
modifications: disulfide 2-7; N-terminus assumed
SMILES: CC[C@H](C)[C@H](NC(=O)[C@H](C)NC(=O)CNC(=O)[C@H](Cc1ccccc1)NC(=O)[C@H](CC(N)=O)NC(=O)[C@@H]1CCCN1C(=O)[C@H](CO)NC(=O)[C@H](CO)NC(=O)[C@H](Cc1c[nH]cn1)NC(=O)[C@H](CCCNC(=N)N)NC(=O)[C@H](CC(C)C)NC(=O)[C@H](Cc1ccccc1)NC(=O)[C@H](CC(N)=O)NC(=O)[C@H](C)NC(=O)[C@H](CC(C)C)NC(=O)[C@H](CCCNC(=N)N)NC(=O)[C@H](CCC(N)=O)NC(=O)[C@@H](NC(=O)[C@H](C)NC(=O)[C@@H]1CSSC[C@H](NC(=O)[C@@H](N)CCCCNC(=O)CC[C@H](NC(=O)CC[C@H](NC(=O)CCCCCCCCCCCCCCCCCCC(=O)O)C(=O)O)C(=O)O)C(=O)N[C@@H](CC(N)=O)C(=O)N[C@@H]([C@@H](C)O)C(=O)N[C@@H](C)C(=O)N[C@@H]([C@@H](C)O)C(=O)N1)[C@@H](C)O)C(=O)N1CCC[C@H]1C(=O)N[C@@H](CO)C(=O)N[C@@H](CO)C(=O)N[C@H](C(=O)N[C@@H](CC(N)=O)C(=O)N[C@H](C(=O)NCC(=O)N[C@@H](Cc1c[nH]cn1)C(=O)N[C@@H](CC(N)=O)C(=O)N[C@H](C(=O)N[C@@H](Cc1ccc(O)cc1)C(N)=O)[C@@H](C)O)C(C)C)[C@@H](C)O
notes: also called compound 86
Regarding B2, the “Ratio hCT/hAmylin binding” value in experiment [1] came out at 159. Moreover, the IC50 in experiment [2] turned out to be 133 nM.

B3: N^-1-[(4S)-4-carboxy-4-(19-carboxynonadecanoylamino)butanoyl]-Gly[Arg1,His14,Arg17,Pro21,Pro27,His34]-h-amylin (peptide)
peptide: {C20 diacid-γGlu}-GRCNTATCATQRLAHFLRHSSPNFGAIPSSTNVGHNTY-NH2
modifications: disulfide 3-8
SMILES: CC[C@H](C)[C@H](NC(=O)[C@H](C)NC(=O)CNC(=O)[C@H](Cc1ccccc1)NC(=O)[C@H](CC(N)=O)NC(=O)[C@@H]1CCCN1C(=O)[C@H](CO)NC(=O)[C@H](CO)NC(=O)[C@H](Cc1c[nH]cn1)NC(=O)[C@H](CCCNC(=N)N)NC(=O)[C@H](CC(C)C)NC(=O)[C@H](Cc1ccccc1)NC(=O)[C@H](Cc1c[nH]cn1)NC(=O)[C@H](C)NC(=O)[C@H](CC(C)C)NC(=O)[C@H](CCCNC(=N)N)NC(=O)[C@H](CCC(N)=O)NC(=O)[C@@H](NC(=O)[C@H](C)NC(=O)[C@@H]1CSSC[C@H](NC(=O)[C@H](CCCNC(=N)N)NC(=O)CNC(=O)CC[C@H](NC(=O)CCCCCCCCCCCCCCCCCCC(=O)O)C(=O)O)C(=O)N[C@@H](CC(N)=O)C(=O)N[C@@H]([C@@H](C)O)C(=O)N[C@@H](C)C(=O)N[C@@H]([C@@H](C)O)C(=O)N1)[C@@H](C)O)C(=O)N1CCC[C@H]1C(=O)N[C@@H](CO)C(=O)N[C@@H](CO)C(=O)N[C@H](C(=O)N[C@@H](CC(N)=O)C(=O)N[C@H](C(=O)NCC(=O)N[C@@H](Cc1c[nH]cn1)C(=O)N[C@@H](CC(N)=O)C(=O)N[C@H](C(=O)N[C@@H](Cc1ccc(O)cc1)C(N)=O)[C@@H](C)O)C(C)C)[C@@H](C)O
notes: also called compound 100
On to B3, for which the “Ratio hCT/hAmylin binding” value in experiment [1] is 65.3. Moreover, the IC50 in experiment [2] was 66.3 nM.

B4: N^-1-[(4S)-4-carboxy-4-(19-carboxynonadecanoylamino)butanoyl]-Gly[Arg1,Ala14,Arg17,Pro21,Pro27,His34]-h-amylin (peptide)
peptide: {C20 diacid-γGlu}-GRCNTATCATQRLAAFLRHSSPNFGAIPSSTNVGHNTY-NH2
modifications: disulfide 3-8
SMILES: CC[C@H](C)[C@H](NC(=O)[C@H](C)NC(=O)CNC(=O)[C@H](Cc1ccccc1)NC(=O)[C@H](CC(N)=O)NC(=O)[C@@H]1CCCN1C(=O)[C@H](CO)NC(=O)[C@H](CO)NC(=O)[C@H](Cc1c[nH]cn1)NC(=O)[C@H](CCCNC(=N)N)NC(=O)[C@H](CC(C)C)NC(=O)[C@H](Cc1ccccc1)NC(=O)[C@H](C)NC(=O)[C@H](C)NC(=O)[C@H](CC(C)C)NC(=O)[C@H](CCCNC(=N)N)NC(=O)[C@H](CCC(N)=O)NC(=O)[C@@H](NC(=O)[C@H](C)NC(=O)[C@@H]1CSSC[C@H](NC(=O)[C@H](CCCNC(=N)N)NC(=O)CNC(=O)CC[C@H](NC(=O)CCCCCCCCCCCCCCCCCCC(=O)O)C(=O)O)C(=O)N[C@@H](CC(N)=O)C(=O)N[C@@H]([C@@H](C)O)C(=O)N[C@@H](C)C(=O)N[C@@H]([C@@H](C)O)C(=O)N1)[C@@H](C)O)C(=O)N1CCC[C@H]1C(=O)N[C@@H](CO)C(=O)N[C@@H](CO)C(=O)N[C@H](C(=O)N[C@@H](CC(N)=O)C(=O)N[C@H](C(=O)NCC(=O)N[C@@H](Cc1c[nH]cn1)C(=O)N[C@@H](CC(N)=O)C(=O)N[C@H](C(=O)N[C@@H](Cc1ccc(O)cc1)C(N)=O)[C@@H](C)O)C(C)C)[C@@H](C)O
Regarding B4, in experiment [1], the “Ratio hCT/hAmylin binding” value was found to be 68.6. In addition, the IC50 in experiment [2] came out at 29.2 nM.

As for {C20 diacid-γGlu}-GRCNTATCATQRLAAFLRHSSPNFGAIPSSTNVGPNTY-NH2 (disulfide 3-8), in experiment [1], the “Ratio hCT/hAmylin binding” value worked out at 26.5. In experiment [2], the IC50 worked out at 3 nM.

B5: N^ε1-[2-[2-[2-(19-carboxynonadecanoylamino)ethoxy]ethoxy]acetyl]-[Arg17,Pro21,Pro27,His34]-h-amylin (peptide)
peptide: K([AEEA-C20 diacid])CNTATCATQRLANFLRHSSPNFGAIPSSTNVGHNTY-NH2
modifications: disulfide 2-7; N-terminus assumed
SMILES: CC[C@H](C)[C@H](NC(=O)[C@H](C)NC(=O)CNC(=O)[C@H](Cc1ccccc1)NC(=O)[C@H](CC(N)=O)NC(=O)[C@@H]1CCCN1C(=O)[C@H](CO)NC(=O)[C@H](CO)NC(=O)[C@H](Cc1c[nH]cn1)NC(=O)[C@H](CCCNC(=N)N)NC(=O)[C@H](CC(C)C)NC(=O)[C@H](Cc1ccccc1)NC(=O)[C@H](CC(N)=O)NC(=O)[C@H](C)NC(=O)[C@H](CC(C)C)NC(=O)[C@H](CCCNC(=N)N)NC(=O)[C@H](CCC(N)=O)NC(=O)[C@@H](NC(=O)[C@H](C)NC(=O)[C@@H]1CSSC[C@H](NC(=O)[C@@H](N)CCCCNC(=O)COCCOCCNC(=O)CCCCCCCCCCCCCCCCCCC(=O)O)C(=O)N[C@@H](CC(N)=O)C(=O)N[C@@H]([C@@H](C)O)C(=O)N[C@@H](C)C(=O)N[C@@H]([C@@H](C)O)C(=O)N1)[C@@H](C)O)C(=O)N1CCC[C@H]1C(=O)N[C@@H](CO)C(=O)N[C@@H](CO)C(=O)N[C@H](C(=O)N[C@@H](CC(N)=O)C(=O)N[C@H](C(=O)NCC(=O)N[C@@H](Cc1c[nH]cn1)C(=O)N[C@@H](CC(N)=O)C(=O)N[C@H](C(=O)N[C@@H](Cc1ccc(O)cc1)C(N)=O)[C@@H](C)O)C(C)C)[C@@H](C)O
notes: also called compound 91
As to B5, the “Ratio hCT/hAmylin binding” value in experiment [1] worked out at 101. Further, the IC50 in experiment [2] is 12 nM.

The values above are taken from patent US20140087995A1 (published 2014).
